Assays:
Assay in all cases: cleavage_in_vitro
[1] = test system: T1, OMNI-42 (Caviibacter abscessus); settings: TXTL; PAM NNGMM (specific NTGCC); FIG. 3F states V2, table states V1
T1 sequence: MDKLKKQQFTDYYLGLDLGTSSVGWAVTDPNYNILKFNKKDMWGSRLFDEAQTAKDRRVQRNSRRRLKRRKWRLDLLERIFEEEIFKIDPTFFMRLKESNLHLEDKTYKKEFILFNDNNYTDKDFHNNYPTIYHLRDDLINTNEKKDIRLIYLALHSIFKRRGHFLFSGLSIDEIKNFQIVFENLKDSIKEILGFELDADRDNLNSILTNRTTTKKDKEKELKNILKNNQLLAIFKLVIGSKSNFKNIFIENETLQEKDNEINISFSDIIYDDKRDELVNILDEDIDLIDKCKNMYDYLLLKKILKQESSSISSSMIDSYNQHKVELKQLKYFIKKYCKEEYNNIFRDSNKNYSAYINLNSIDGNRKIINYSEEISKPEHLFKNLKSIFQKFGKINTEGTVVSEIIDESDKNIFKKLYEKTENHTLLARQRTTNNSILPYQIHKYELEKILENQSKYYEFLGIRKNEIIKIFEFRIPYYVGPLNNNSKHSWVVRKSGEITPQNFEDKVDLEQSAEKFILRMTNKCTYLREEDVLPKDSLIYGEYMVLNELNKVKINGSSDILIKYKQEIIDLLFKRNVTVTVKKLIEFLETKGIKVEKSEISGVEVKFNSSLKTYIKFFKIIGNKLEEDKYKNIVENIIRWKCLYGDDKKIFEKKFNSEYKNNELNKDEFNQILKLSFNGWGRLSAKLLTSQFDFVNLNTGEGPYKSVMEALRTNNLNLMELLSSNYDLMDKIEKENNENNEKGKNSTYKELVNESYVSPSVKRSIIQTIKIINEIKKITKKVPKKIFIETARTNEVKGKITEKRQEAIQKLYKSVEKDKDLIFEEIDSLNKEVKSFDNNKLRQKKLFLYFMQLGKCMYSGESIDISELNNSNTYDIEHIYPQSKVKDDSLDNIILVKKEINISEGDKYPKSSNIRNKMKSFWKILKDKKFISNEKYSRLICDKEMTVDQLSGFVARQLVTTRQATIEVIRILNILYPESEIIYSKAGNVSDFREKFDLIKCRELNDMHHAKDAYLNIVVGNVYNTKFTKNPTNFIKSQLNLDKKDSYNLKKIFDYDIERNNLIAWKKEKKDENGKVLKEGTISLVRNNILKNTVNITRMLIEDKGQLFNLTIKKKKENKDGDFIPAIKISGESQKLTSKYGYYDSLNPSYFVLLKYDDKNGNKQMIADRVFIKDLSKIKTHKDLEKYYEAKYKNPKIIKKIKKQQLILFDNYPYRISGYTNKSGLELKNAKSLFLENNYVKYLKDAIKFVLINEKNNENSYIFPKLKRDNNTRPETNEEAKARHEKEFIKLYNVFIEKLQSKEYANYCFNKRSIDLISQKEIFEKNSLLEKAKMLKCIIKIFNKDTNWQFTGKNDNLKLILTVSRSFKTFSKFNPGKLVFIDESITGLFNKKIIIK

[2] = test system: T2, OMNI-43 (Arcobacter sp. SM1702); settings: TXTL; PAM YAAAR; V1, V2 tested
T2 sequence: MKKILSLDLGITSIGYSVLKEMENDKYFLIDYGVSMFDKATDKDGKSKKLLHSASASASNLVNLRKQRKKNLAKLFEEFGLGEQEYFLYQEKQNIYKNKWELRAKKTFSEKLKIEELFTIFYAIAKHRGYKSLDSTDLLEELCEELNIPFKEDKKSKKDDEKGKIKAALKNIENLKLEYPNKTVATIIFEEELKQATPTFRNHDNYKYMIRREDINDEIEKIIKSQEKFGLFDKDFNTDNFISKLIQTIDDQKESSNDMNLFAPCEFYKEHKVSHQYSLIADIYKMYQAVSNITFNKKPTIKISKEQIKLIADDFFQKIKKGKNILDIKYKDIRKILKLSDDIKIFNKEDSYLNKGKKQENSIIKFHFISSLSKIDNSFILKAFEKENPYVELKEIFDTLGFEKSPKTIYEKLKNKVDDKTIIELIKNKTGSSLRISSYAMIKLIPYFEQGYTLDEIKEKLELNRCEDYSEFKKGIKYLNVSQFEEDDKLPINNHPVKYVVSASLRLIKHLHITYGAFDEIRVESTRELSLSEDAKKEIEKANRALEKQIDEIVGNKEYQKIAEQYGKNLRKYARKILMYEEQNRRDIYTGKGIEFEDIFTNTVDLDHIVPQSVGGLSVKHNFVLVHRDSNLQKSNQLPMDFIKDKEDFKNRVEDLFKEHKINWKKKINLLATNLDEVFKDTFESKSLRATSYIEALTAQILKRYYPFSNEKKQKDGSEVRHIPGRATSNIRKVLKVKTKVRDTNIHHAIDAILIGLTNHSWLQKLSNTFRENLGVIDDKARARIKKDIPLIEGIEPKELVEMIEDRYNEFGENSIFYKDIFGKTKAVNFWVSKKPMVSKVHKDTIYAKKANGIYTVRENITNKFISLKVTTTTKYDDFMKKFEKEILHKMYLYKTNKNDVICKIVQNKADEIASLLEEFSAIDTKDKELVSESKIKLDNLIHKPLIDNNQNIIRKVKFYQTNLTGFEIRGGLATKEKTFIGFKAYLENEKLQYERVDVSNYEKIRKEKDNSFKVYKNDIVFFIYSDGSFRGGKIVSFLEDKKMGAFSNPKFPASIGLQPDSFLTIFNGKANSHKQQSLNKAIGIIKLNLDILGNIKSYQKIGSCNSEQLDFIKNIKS

[3] = test system: T3, OMNI-46 (Carnobacterium funditum); settings: TXTL; PAM YAAAR
T3 sequence: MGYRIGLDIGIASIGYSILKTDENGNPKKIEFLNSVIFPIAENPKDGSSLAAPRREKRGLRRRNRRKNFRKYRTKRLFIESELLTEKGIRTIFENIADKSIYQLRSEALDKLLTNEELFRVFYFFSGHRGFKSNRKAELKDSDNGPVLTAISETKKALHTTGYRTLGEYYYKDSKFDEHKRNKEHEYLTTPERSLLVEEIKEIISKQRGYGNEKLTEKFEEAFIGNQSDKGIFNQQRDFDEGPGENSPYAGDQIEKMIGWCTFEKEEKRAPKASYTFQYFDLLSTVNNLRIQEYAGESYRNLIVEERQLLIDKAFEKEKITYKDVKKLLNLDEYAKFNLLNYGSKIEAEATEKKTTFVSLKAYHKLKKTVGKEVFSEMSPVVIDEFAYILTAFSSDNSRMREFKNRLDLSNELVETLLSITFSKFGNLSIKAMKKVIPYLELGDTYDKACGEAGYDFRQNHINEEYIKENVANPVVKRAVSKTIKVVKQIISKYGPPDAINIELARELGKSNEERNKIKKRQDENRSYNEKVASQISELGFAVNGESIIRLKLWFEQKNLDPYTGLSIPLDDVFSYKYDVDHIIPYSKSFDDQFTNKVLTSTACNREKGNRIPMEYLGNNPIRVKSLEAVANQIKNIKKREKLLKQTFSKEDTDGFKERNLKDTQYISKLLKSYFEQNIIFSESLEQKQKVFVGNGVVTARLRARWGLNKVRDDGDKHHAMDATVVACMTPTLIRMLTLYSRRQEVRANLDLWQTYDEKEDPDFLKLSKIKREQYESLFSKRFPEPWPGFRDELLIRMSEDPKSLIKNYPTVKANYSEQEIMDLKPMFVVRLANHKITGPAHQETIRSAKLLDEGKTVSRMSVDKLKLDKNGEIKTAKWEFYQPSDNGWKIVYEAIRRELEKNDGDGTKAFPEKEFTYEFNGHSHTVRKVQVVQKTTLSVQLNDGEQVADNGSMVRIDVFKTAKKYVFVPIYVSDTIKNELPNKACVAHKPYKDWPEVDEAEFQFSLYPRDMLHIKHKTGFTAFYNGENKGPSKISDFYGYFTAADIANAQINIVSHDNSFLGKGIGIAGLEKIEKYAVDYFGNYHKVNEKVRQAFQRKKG

[4] = test system: T4, OMNI-44 (Arcobacter mytili); settings: TXTL; PAM NRHAA; FIG. 3H states V2, table states V3
T4 sequence: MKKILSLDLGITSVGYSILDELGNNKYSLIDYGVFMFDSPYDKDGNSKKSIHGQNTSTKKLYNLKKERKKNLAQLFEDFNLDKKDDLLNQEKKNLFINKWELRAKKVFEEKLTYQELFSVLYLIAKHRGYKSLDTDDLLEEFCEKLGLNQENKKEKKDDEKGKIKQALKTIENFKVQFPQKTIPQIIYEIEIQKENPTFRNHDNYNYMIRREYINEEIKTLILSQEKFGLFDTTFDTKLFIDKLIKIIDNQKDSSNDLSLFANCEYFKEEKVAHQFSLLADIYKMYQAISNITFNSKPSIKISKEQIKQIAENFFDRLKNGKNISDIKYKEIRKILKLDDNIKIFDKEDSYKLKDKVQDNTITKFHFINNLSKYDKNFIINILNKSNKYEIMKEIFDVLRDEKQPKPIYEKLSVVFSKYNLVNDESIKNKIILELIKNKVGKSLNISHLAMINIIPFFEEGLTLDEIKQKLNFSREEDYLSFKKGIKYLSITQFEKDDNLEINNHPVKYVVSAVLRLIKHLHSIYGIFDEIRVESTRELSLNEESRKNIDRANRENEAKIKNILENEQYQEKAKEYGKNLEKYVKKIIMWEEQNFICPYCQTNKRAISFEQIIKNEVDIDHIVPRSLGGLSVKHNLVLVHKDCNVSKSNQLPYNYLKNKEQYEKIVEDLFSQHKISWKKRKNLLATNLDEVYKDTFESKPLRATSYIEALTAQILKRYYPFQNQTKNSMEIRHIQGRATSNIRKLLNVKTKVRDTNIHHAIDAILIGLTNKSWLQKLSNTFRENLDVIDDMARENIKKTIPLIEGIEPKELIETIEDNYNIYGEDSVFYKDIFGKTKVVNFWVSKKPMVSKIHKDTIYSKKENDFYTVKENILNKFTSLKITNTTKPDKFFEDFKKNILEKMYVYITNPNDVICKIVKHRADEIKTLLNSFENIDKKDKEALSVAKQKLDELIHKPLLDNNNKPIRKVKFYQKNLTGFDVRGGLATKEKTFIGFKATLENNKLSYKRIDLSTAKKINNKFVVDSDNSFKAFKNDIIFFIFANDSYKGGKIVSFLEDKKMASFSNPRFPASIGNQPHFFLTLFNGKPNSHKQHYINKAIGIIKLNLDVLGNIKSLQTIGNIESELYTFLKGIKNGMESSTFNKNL

**Q.** Which activity (1-depletion score) [1] does the source give for “GGAAGAGCAGAGCCUUGGUCUCGUUUAAGAGUUAUGUAAGAAAUUACAUAACGAGUUUAAAUAAAAAUUUAUUGAAAUCGUCAAAUUAUUUUUGACUAGCCUCUUUUUGAAGAGGUUUUUUU / GGAAGAGCAGAGCCTTGGTCTCNNNNNNNN / NNNNNNNNGAGACCAAGGCTCTGCTCTTCC [OMNI-42 T2 sgRNA V2 ; pbPOS T2 protospacer 8N PAM library]” here?
**A.** Its activity (1-depletion score) is 0.91.

**Q.** How did the activity (1-depletion score) [2] turn out when “GGAAGAGCAGAGCCUUGGUCUCGUUUUAAUACCCCUACAAACUGGAAACAGUUUAAUAGGGGUAUUAAACUAAGGUUGCUAUUUUAGCAACUGACUUUAGGCAGUGGUUUCGACCACUUGCCCUUUUUU / GGAAGAGCAGAGCCTTGGTCTCNNNNNNNN / NNNNNNNNGAGACCAAGGCTCTGCTCTTCC [OMNI-43 T2 sgRNA V1 ; pbPOS T2 protospacer 8N PAM library]” was run?
**A.** The activity (1-depletion score) was 0.91.

**Q.** How did the activity (1-depletion score) [3] turn out when “GGAAGAGCAGAGCCUUGGUCUCGCUAUACGUUCCUUACAAAAUCGGGAAACCGACUUUGCAAGGAACGUAUAGUAAAGGGAGUGCUCUGCACUCUCCUGUAAAGCACUAACCCCAUUUUCUUCGGAGAAUGGGGUUAUCUUUUU / GGAAGAGCAGAGCCTTGGTCTCNNNNNNNN / NNNNNNNNGAGACCAAGGCTCTGCTCTTCC [OMNI-46 T2 sgRNA V2 ; pbPOS T2 protospacer 8N PAM library]” was run?
**A.** Its activity (1-depletion score) is 0.95.

**Q.** For “GGAAGAGCAGAGCCUUGGUCUCGUUUUAAUACCCCUAUAAACUACUAGAAAUAGUAGUUUAAUAGGGGUAUUAAACUAAGACUACUUUAAUAGUAGUUGAUUUUAGGAGAUAGUUUUUCUAUCUCCCUUUUU / GGAAGAGCAGAGCCTTGGTCTCNNNNNNNN / NNNNNNNNGAGACCAAGGCTCTGCTCTTCC [OMNI-44 T2 sgRNA V2 ; pbPOS T2 protospacer 8N PAM library]”, which activity (1-depletion score) [4] is on record?
**A.** Its activity (1-depletion score) is 0.96.

Reference: patent US20220213456
